Experimental data as given in PMC8960804.

Molecular target: RexT, redox-sensing transcriptional regulator of Nostoc (Anabaena) sp. PCC 7120, tag-free, reduced (Nostoc (Anabaena) sp. PCC 7120)
Experiment: SEC; HiLoad 16/600 Superdex 200 pg, 50 mM HEPES pH 7.5, 100 mM NaCl, 5% v/v glycerol, 2 mM DTT

stoichiometry N: 2
Substance: RexT, redox-sensing transcriptional regulator of Nostoc (Anabaena) sp. PCC 7120, tag-free, reduced (natural protein)
